From the supplement of paper PMC9112550, “Optimization of the antimicrobial peptide Bac7 by deep mutational scanning” (BMC Biology, 2022)

System: Escherichia coli TOP10
Test: shrunken log2 fold change of peptide-encoding DNA abundance (4.5 h post-induction vs induction); higher = less antimicrobial activity (less host growth inhibition)
Conditions: time post-induction: 4.5 h; library: site-saturation at positions 5, 18, 19, 20
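Also: peptides expressed intracellularly from a pBAD plasmid library in pooled LB shake-flask culture, induced with 0.3% L-arabinose, DNA abundance read by NGS, three biological replicates, DESeq2 with apeglm shrinkage.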

Sequence	shrunken log2 fold change
RRIRARPPRLPRPRPRPWGAPRP	0.401
RRIRARPPRLPRPRPRPWGCPRP	0.211
RRIRARPPRLPRPRPRPWGEPRP	-0.00466
RRIRARPPRLPRPRPRPWKFPRP	-0.00178
RRIRARPPRLPRPRPRPWKSPRP	-0.00111
RRIRARPPRLPRPRPRPWLDPRP	0.0658
RRIRARPPRLPRPRPRPWLIPRP	0.111
RRIRARPPRLPRPRPRPWLWPRP	0.435
RRIRARPPRLPRPRPRPWNHPRP	-0.128
RRIRARPPRLPRPRPRPWPQPRP	0.403
RRIRARPPRLPRPRPRPWQHPRP	0.0196
RRIRARPPRLPRPRPRPWQKPRP	-0.0111
RRIRARPPRLPRPRPRPWQVPRP	0.191
RRIRARPPRLPRPRPRPWRHPRP	0.333
RRIRARPPRLPRPRPRPWRMPRP	0.0537
RRIRARPPRLPRPRPRPWRPPRP	0.348
RRIRARPPRLPRPRPRPWSAPRP	0.132
RRIRARPPRLPRPRPRPWSQPRP	0.149
RRIRARPPRLPRPRPRPWTHPRP	0.04
RRIRARPPRLPRPRPRPWTMPRP	-0.0418

Sequence	shrunken log2 fold change
RRIRARPPRLPRPRPRPWVMPRP	-0.156
RRIRARPPRLPRPRPRPWWDPRP	-0.101
RRIRARPPRLPRPRPRPWWKPRP	-0.00149
RRIRARPPRLPRPRPRPWWWPRP	0.0143
RRIRARPPRLPRPRPRPWWYPRP	-0.172
RRIRARPPRLPRPRPRPWYMPRP	-0.958
RRIRARPPRLPRPRPRPYAIPRP	2.12
RRIRARPPRLPRPRPRPYCGPRP	-0.192
RRIRARPPRLPRPRPRPYCMPRP	-0.495
RRIRARPPRLPRPRPRPYCNPRP	-0.378
RRIRARPPRLPRPRPRPYCTPRP	-0.0621
RRIRARPPRLPRPRPRPYEFPRP	0.182
RRIRARPPRLPRPRPRPYERPRP	0.0697
RRIRARPPRLPRPRPRPYFMPRP	-0.62
RRIRARPPRLPRPRPRPYFQPRP	-0.383
RRIRARPPRLPRPRPRPYGDPRP	-0.0672
RRIRARPPRLPRPRPRPYGFPRP	0.00293
RRIRARPPRLPRPRPRPYHMPRP	0.00865
RRIRARPPRLPRPRPRPYHQPRP	-0.885
RRIRARPPRLPRPRPRPYIAPRP	-0.438

Sequence	shrunken log2 fold change
RRIRARPPRLPRPRPRPYIEPRP	-0.44
RRIRARPPRLPRPRPRPYLPPRP	0.0397
RRIRARPPRLPRPRPRPYMDPRP	-0.0602
RRIRARPPRLPRPRPRPYMLPRP	-0.659
RRIRARPPRLPRPRPRPYNYPRP	1.34
RRIRARPPRLPRPRPRPYPHPRP	-0.0654
RRIRARPPRLPRPRPRPYSCPRP	-0.43
RRIRARPPRLPRPRPRPYSNPRP	-0.781
RRIRARPPRLPRPRPRPYVRPRP	-0.377
RRIRARPPRLPRPRPRPYVTPRP	-0.658
RRIRARPPRLPRPRPRPYVVPRP	-0.623
RRIRARPPRLPRPRPRPYWDPRP	-0.964
RRIRARPPRLPRPRPRPYYLPRP	-0.539
RRIRCRPPRLPRPRPRPAADPRP	0.341
RRIRCRPPRLPRPRPRPACCPRP	0.306
RRIRCRPPRLPRPRPRPACEPRP	0.112
RRIRCRPPRLPRPRPRPACYPRP	0.0371
RRIRCRPPRLPRPRPRPADQPRP	-0.0916
RRIRCRPPRLPRPRPRPAEHPRP	0.0782
RRIRCRPPRLPRPRPRPAFAPRP	0.134
